Laboratory results: PMC7950132 (Molecular & Cellular Proteomics : MCP, 2021)

Target: T1, CUL5(NEDD8) (human, UniProt Q93034 1-780; Q15843 1-76, NEDD8 attached at K724)
T1 construct: cullin 5, human; NEDD8, human, conjugated to CUL5; Always present together with RBX2 and ELOB/C in the experiments; written alone for the pairs inside the complexes; The His tag on CUL5 served the Ni-NTA step before TEV cleavage; also called neddylated CUL5; source: E. coli BL21, coexpressed with RBX2 and ELOB/C, neddylated in mixed lysates, purified (Ni-NTA, SEC); not shown: His6, N-terminal, …
T1 sequence (Q93034 whole entry, chain 1 of 2): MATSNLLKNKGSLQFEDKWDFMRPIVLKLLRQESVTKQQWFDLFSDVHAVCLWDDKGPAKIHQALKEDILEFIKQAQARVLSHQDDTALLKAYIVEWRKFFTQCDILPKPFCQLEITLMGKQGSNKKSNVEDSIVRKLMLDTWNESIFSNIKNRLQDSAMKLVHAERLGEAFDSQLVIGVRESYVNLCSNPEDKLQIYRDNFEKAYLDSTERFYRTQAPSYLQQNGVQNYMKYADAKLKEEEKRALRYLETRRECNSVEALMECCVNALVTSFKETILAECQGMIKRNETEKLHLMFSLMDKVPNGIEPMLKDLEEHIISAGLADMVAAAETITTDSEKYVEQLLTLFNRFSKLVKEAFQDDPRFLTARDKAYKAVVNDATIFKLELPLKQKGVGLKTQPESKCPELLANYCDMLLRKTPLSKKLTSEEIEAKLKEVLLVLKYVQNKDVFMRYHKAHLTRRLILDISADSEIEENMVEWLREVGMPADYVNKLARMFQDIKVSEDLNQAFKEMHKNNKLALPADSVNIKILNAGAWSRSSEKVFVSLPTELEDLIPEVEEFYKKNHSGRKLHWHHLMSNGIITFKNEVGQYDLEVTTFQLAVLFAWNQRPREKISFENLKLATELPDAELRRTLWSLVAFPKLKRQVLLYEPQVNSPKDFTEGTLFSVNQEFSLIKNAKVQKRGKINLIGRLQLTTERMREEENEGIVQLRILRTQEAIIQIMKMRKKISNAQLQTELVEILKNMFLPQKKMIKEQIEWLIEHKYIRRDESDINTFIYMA
T1 sequence (Q15843 1-76, chain 2 of 2): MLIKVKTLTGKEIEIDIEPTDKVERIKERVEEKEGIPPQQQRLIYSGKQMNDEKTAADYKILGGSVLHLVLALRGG
Assay: SEC; ARIH2 mixed with an equimolar amount of ELOB/C-CUL5(NEDD8)-RBX2 or ELOB/C-CUL5-RBX2, separated by size exclusion; fractions on SDS-PAGE
Details: both partners purified

B1: Ariadne RBR E3 ubiquitin protein ligase 2 (ARIH2) (enzyme, human, UniProt O95376 1-493, looked up)
chain: MSVDMNSQGSDSNEEDYDPNCEEEEEEEEDDPGDIEDYYVGVASDVEQQGADAFDPEEYQFTCLTYKESEGALNEHMTSLASVLKVSHSVAKLILVNFHWQVSEILDRYKSNSAQLLVEARVQPNPSKHVPTSHPPHHCAVCMQFVRKENLLSLACQHQFCRSCWEQHCSVLVKDGVGVGVSCMAQDCPLRTPEDFVFPLLPNEELREKYRRYLFRDYVESHYQLQLCPGADCPMVIRVQEPRARRVQCNRCNEVFCFKCRQMYHAPTDCATIRKWLTKCADDSETANYISAHTKDCPKCNICIEKNGGCNHMQCSKCKHDFCWMCLGDWKTHGSEYYECSRYKENPDIVNQSQQAQAREALKKYLFYFERWENHNKSLQLEAQTYQRIHEKIQERVMNNLGTWIDWQYLQNAAKLLAKCRYTLQYTYPYAYYMESGPRKKLFEYQQAQLEAEIENLSWKVERADSYDRGDLENQMHIAEQRRRTLLKDFHDT
notes: ARIH2, human, codon-optimised synthetic gene; also called ARIH2 RBRL; source: E. coli BL21, purified (Ni-NTA, SEC); not shown: His6, N-terminal, cleaved; MBP, N-terminal, cleaved
binding result: binds
